Experimental data as given in US20180360949A1.

Experiments:
[1] = target: CD4 (UniProt P01730); experiment: Biacore CD4 binding, lot comparison (reference material)
[2] = target: CD4 (UniProt P01730); experiment: Biacore CD4 binding, lot comparison (clinical trial material)

Substance | CD4 binding (Biacore) % [1] | CD4 binding (Biacore) % [2]
1086.C gp120 | 100% | 87%
TV1.C gp120 | 91% | 98%
